{"source": "patent US20240417476A1", "about": "(ATYR PHARMA, published 2024)", "binders": {"B1": {"name": "CCR7 truncated after aa331 (without its C-terminal cytoplasmic sequence) in pBiT1.1-C with split NanoLuc tag, expressed in Expi293 cells (receptor)", "chain": "QDEVTDDYIGDNTTVDYTLFESLCSKKDVRNFKAWFLPIMYSIICFVGLLGNGLVVLTYIYFKRLKTMTDTYLLNLAVADILFLLTLPFWAYSAAKSWVFGVHFCKLIFAIYKMSFFSGMLLLLCISIDRYVAIVQAVSAHRHRARVLLISKLSCVGIWILATVLSIPELLYSDLQRSSSEQAMRCSLITEHVEAFITIQVAQMVIGFLVPLLAMSFCYLVIIRTLLQARNFERNKAIKVIIAVVVVFIVFQLPYNGVVLAQTVANFNITSSTCELSKQLNIAYDVTYSLACVRCCVNPFLYAFIGV", "notes": "Membrane protein on cells, cytoplasmic tail removed; not shown: vector-encoded spacer and large split NanoLuc fragment (pBiT1.1-C)"}, "B2": {"name": "Human NRP2b v5 with C-terminal split NanoLuc tag, expressed in Expi293F cells (receptor)", "chain": "QPDPPCGGRLNSKDAGYITSPGYPQDYPSHQNCEWIVYAPEPNQKIVLNFNPHFEIEKHDCKYDFIEIRDGDSESADLLGKHCGNIAPPTIISSGSMLYIKFTSDYARQGAGFSLRYEIFKTGSEDCSKNFTSPNGTIESPGFPEKYPHNLDCTFTILAKPKMEIILQFLIFDLEHDPLQVGEGDCKYDWLDIWDGIPHVGPLIGKYCGTKTPSELRSSTGILSLTFHTDMAVAKDGFSARYYLVHQEPLENFQCNVPLGMESGRIANEQISASSTYSDGRWTPQQSRLHGDDNGWTPNLDSNKEYLQVDLRFLTMLTAIATQGAISRETQNGYYVKSYKLEVSTNGEDWMVYRHGKNHKVFQANNDATEVVLNKLHAPLLTRFVRIRPQTWHSGIALRLELFGCRVTDAPCSNMLGMLSGLIADSQISASSTQEYLWSPSAARLVSSRSGWFPRIPQAQPGEEWLQVDLGTPKTVKGVIIQGARGGDSITAVEARAFVRKFKVSYSLNGKDWEYIQDPRTQQPKLFEGNMHYDTPDIRRFDPIPAQYVRVYPERWSPAGIGMRLEVLGCDWTDSKPTVETLGPTVKSEETTTPYPTEEEATECGENCSFEDDKDLQLPSGFNCNFDFLEEPCGWMYDHAKWLRTTWASSSSPNDRTFPDDRNFLRLQSDSQREGQYARLISPPVHLPRSPVCMEFQYQATGGRGVALQVVREASQESKLLWVIREDQGGEWKHGRIILPSYDMEYQIVFEGVIGKGRSGEIAIDDIRISTDVPLENCMEPISAFAGGTLLPGTEPTVDTVPMQPIPAYWYYVMAAGGAVLVLVSVALALVLHYHRFRYAAKKTDHSITYKTSHYTNGAPLAVEPTLTIKLEQDRGSHC", "notes": "cDNA Origene RC210928, isoform 5; not shown: vector-encoded spacer and split NanoLuc fragment"}, "B3": {"name": "CCR7, full coding sequence, in pBiT1.1-C with C-terminal split NanoLuc tag, expressed in Expi293F cells (receptor)", "chain": "QDEVTDDYIGDNTTVDYTLFESLCSKKDVRNFKAWFLPIMYSIICFVGLLGNGLVVLTYIYFKRLKTMTDTYLLNLAVADILFLLTLPFWAYSAAKSWVFGVHFCKLIFAIYKMSFFSGMLLLLCISIDRYVAIVQAVSAHRHRARVLLISKLSCVGIWILATVLSIPELLYSDLQRSSSEQAMRCSLITEHVEAFITIQVAQMVIGFLVPLLAMSFCYLVIIRTLLQARNFERNKAIKVIIAVVVVFIVFQLPYNGVVLAQTVANFNITSSTCELSKQLNIAYDVTYSLACVRCCVNPFLYAFIGVKFRNDLFKLFKDLGCLSQEQLRQWSSCRHIRRSSMSVEAETTTTFSP", "notes": "cDNA Genscript OHu24012; not shown: vector-encoded spacer and large split NanoLuc fragment (pBiT1.1-C)"}, "B4": {"name": "Human NRP2b v4 (906aa) with C-terminal split NanoLuc tag, expressed in Expi293F cells (receptor)", "chain": "QPDPPCGGRLNSKDAGYITSPGYPQDYPSHQNCEWIVYAPEPNQKIVLNFNPHFEIEKHDCKYDFIEIRDGDSESADLLGKHCGNIAPPTIISSGSMLYIKFTSDYARQGAGFSLRYEIFKTGSEDCSKNFTSPNGTIESPGFPEKYPHNLDCTFTILAKPKMEIILQFLIFDLEHDPLQVGEGDCKYDWLDIWDGIPHVGPLIGKYCGTKTPSELRSSTGILSLTFHTDMAVAKDGFSARYYLVHQEPLENFQCNVPLGMESGRIANEQISASSTYSDGRWTPQQSRLHGDDNGWTPNLDSNKEYLQVDLRFLTMLTAIATQGAISRETQNGYYVKSYKLEVSTNGEDWMVYRHGKNHKVFQANNDATEVVLNKLHAPLLTRFVRIRPQTWHSGIALRLELFGCRVTDAPCSNMLGMLSGLIADSQISASSTQEYLWSPSAARLVSSRSGWFPRIPQAQPGEEWLQVDLGTPKTVKGVIIQGARGGDSITAVEARAFVRKFKVSYSLNGKDWEYIQDPRTQQPKLFEGNMHYDTPDIRRFDPIPAQYVRVYPERWSPAGIGMRLEVLGCDWTDSKPTVETLGPTVKSEETTTPYPTEEEATECGENCSFEDDKDLQLPSGFNCNFDFLEEPCGWMYDHAKWLRTTWASSSSPNDRTFPDDRNFLRLQSDSQREGQYARLISPPVHLPRSPVCMEFQYQATGGRGVALQVVREASQESKLLWVIREDQGGEWKHGRIILPSYDMEYQIVFEGVIGKGRSGEIAIDDIRISTDVPLENCMEPISAFAGENFKGGTLLPGTEPTVDTVPMQPIPAYWYYVMAAGGAVLVLVSVALALVLHYHRFRYAAKKTDHSITYKTSHYTNGAPLAVEPTLTIKLEQDRGSHC", "notes": "not shown: vector-encoded spacer and split NanoLuc fragment"}}, "key": {"[1]": {"biological_target": "T1, Human NRP2a v2 (926aa) in pBiT2.1-C with C-terminal split NanoLuc tag, expressed in Expi293 cells (human, UniProt O60462 23-931)", "T1 construct": "cDNA Origene RCC220706, isoform 2; also called pBiT2.1-C-NRP2v2 (isoform 2); NRP2 v2; not shown: vector-encoded spacer and small split NanoLuc fragment (pBiT2.1-C)", "assay": "NanoBiT complementation of NRP2a v2 and CCR7 truncated after aa331 in Expi293 cells; 100 nM CCL21; normalized to wells without ligand"}, "[2]": {"biological_target": "B3", "assay": "NanoBiT split-luciferase complementation of tagged NRP2 and CCR7 in Expi293F cells; normalized to wells without ligand", "protocol": "(§1) The vectors were then transfected into Expi293F cells by Expifectamine transfection reagent (Fisher Scientific) at 1 ug per mL at a density of 1 million cells per mL. Approximately 16-20 hours post transfection, cells were washed, plated at 100,000 cells/well in luminometer plates, and then cell permeable luciferase substrate was added and luminescence was monitored on a GloMax96 (Promega) until stabilization of luminescent signal was achieved."}, "[3]": {"biological_target": "T1, Human NRP2a v2 (926aa) in pBiT2.1-C …", "assay": "NanoBiT split-luciferase complementation of tagged NRP2 and CCR7 in Expi293F cells; 100 nM CCL21 or CCL19 added; normalized to wells without ligand", "protocol": "as §1"}, "[4]": {"biological_target": "T2, Human NRP2a v1 (931aa) with C-terminal split NanoLuc tag, expressed in Expi293F cells (human, UniProt O60462 23-931)", "T2 construct": "Made by mutagenesis from the isoform 2 / isoform 5 vectors; not shown: vector-encoded spacer and split NanoLuc fragment (Promega pBiT vector)", "assay": "NanoBiT split-luciferase complementation of tagged NRP2 and CCR7 in Expi293F cells; 100 nM CCL21 or CCL19 added; normalized to wells without ligand"}, "[5]": {"biological_target": "B3", "assay": "NanoBiT split-luciferase complementation of tagged NRP2 and CCR7 in Expi293F cells; normalized to wells without ligand", "remark": "listed apart in the source", "protocol": "as §1"}}, "note": "Read-outs that look alike come from different tables or passages of the source."}
{"binder": "B1", "values": [{"measurement": "binding result", "setting": "[1]", "value": "binds"}]}
{"binder": "B2", "values": [{"measurement": "binding result", "setting": "[2]", "value": "no binding (tested: 100 nM CCL21 or CCL19 (from the text))"}]}
{"binder": "B3", "values": [{"measurement": "binding result", "setting": "[3]", "value": "binds"}, {"measurement": "binding result", "setting": "[4]", "value": "binds"}]}
{"binder": "B4", "values": [{"measurement": "binding result", "setting": "[5]", "value": "no binding (tested: 100 nM CCL21 or CCL19 (from the text))"}]}
